From article PMC12732657 come the findings set out here.

In experiment [1] the target is Bovine pancreatic β-trypsin (bovine).
The target is the same in experiment [2]. Description: ITC; CVTI (200 µM) injected in 2.02 µL steps into 170 µL cell with bovine trypsin (20 µM); 50 mM Tris pH 7.8, 150 mM NaCl; Nano ITC. A general note: In ITC the heat of successive injections is recorded.

On to “Cleome viscosa trypsin inhibitor (natural protein)”, for which the Vmax of caseinolysis by trypsin (5 µM) in the presence of CVTI (15 µM); 20.23 µM/min without CVTI in experiment [1] stood at 16.7 µM/min. Moreover, in experiment [2], the Ka amounted to 513000 M⁻¹, the Kd is 1950 nM, the dH was 76.8 kcal/mol and the stoichiometry N was determined as 1.1.

For orientation: Kd means the free concentration of one partner at which half of the binding sites on the other are occupied at equilibrium, for simple one-to-one binding. What is called stoichiometry N is the number of molecules, sites or subunits per partner or assembly.
